B1: Hairpin Ribozyme (parent)
chain: GUCCUCUUUCACGUGCGCGUGAAAGAGAGAAGUGAACCAGAGAAACACACGUUGUGGUAUAUUACCUGGUA

Variants of: B1
Assay: self-cleavage, relative activity (ratio to wild type); higher = more cleavage; co-transcriptional
In the case of U5C A43C, the self-cleavage is reported as 0.193. U5G A71U showed a self-cleavage of 0.306. U5A A43U showed a self-cleavage of 0.188. Variant U5C G68U has a self-cleavage of 0.127. U5C G68A gave a self-cleavage of 0.14. In the case of C4G A11G, the self-cleavage is reported as 0.272. For U5A U14A, the self-cleavage was 0.164. In the case of U5C G32U, the self-cleavage is reported as 0.132. U5C G32C gave a self-cleavage of 0.0586. Variant C4U G17U has a self-cleavage of 0.313. With C4U G17C the self-cleavage was 0.266. With C4G G25U the self-cleavage was 0.177. Variant U5G A36U has a self-cleavage of 0.0604. U5C A23U showed a self-cleavage of 0.461. C4U U8C showed a self-cleavage of 0.241. For U5G U67G, the self-cleavage was 0.164. In the case of U5G G21U, the self-cleavage is reported as 0.324. Work on C4G A71G yielded a self-cleavage of 0.241. With C4G A71U the self-cleavage was 0.289. C4U A26U gave a self-cleavage of 0.156. C4U A23G showed a self-cleavage of 0.299. With C4U A23U the self-cleavage was 0.315. With C4G G51A the self-cleavage was 0.245. With U5C U67A the self-cleavage was 0.0797. C4U A35G showed a self-cleavage of 0.304. C4U U63A showed a self-cleavage of 0.157. For C4U U63C, the self-cleavage was 0.191. Variant C6A A23C has a self-cleavage of 0.52. U5G U33G gave a self-cleavage of 0.0612. U5A G69A showed a self-cleavage of 0.0903. Work on U5A G69U yielded a self-cleavage of 0.115. In the case of U5A G69C, the self-cleavage is reported as 0.0571. C4U A39G gave a self-cleavage of 0.122. For C4U A39C, the self-cleavage was 0.251. With C4U G21A the self-cleavage was 0.389. With U5A G19A the self-cleavage was 0.395. U5G G15C showed a self-cleavage of 0.249. In the case of U5G G15U, the self-cleavage is reported as 0.431. For C4U C10U, the self-cleavage was 0.224. U5A C18U gave a self-cleavage of 0.554. Work on U5A A26G yielded a self-cleavage of 0.244. For U5A U70G, the self-cleavage was 0.171. In the case of U5A A41G, the self-cleavage is reported as 0.162. With U5C U55A the self-cleavage was 0.21. U5C U55C showed a self-cleavage of 0.2. C4U A24U showed a self-cleavage of 0.295. For U5G U58A, the self-cleavage was 0.272. Work on U5G U58C yielded a self-cleavage of 0.25. In the case of U5G G68C, the self-cleavage is reported as 0. In the case of U5G G68U, the self-cleavage is reported as 0.156. U5G C18U gave a self-cleavage of 0.243. Work on U5G U14C yielded a self-cleavage of 0.383. U5G U14G showed a self-cleavage of 0.152. Variant U5G U14A has a self-cleavage of 0.204. Work on U5G U53A yielded a self-cleavage of 0.455. With U5G U53G the self-cleavage was 0.179. Work on U5C G29U yielded a self-cleavage of 0.114. U5C G29C showed a self-cleavage of 0.205. Work on U5A A22C yielded a self-cleavage of 0.339. U5A A22G gave a self-cleavage of 0.308. With U5C U9C the self-cleavage was 0.457. Variant U5C A49G has a self-cleavage of 0.343. In the case of U5C A49C, the self-cleavage is reported as 0.377. Variant C4U A36C has a self-cleavage of 0.145. Variant C4U A36U has a self-cleavage of 0.227. Variant C4U A36G has a self-cleavage of 0.465. Work on U5A A11G yielded a self-cleavage of 0.324. In the case of U5A G21A, the self-cleavage is reported as 0.378. U5A G21C gave a self-cleavage of 0.156. For U5C U52G, the self-cleavage was 0.608. With U5C U52C the self-cleavage was 0.636. C4G C18G gave a self-cleavage of 0.0835. C4G C18A showed a self-cleavage of 0.194. Work on C4U A31G yielded a self-cleavage of 0.0741. With C4U C48G the self-cleavage was 0.123. With C4U C48A the self-cleavage was 0.114. In the case of U5A U60G, the self-cleavage is reported as 0.29. Variant C4G C38G has a self-cleavage of 0.104. Variant U5A G56A has a self-cleavage of 0.214. Work on C4U A44C yielded a self-cleavage of 0.102. U5A G54C showed a self-cleavage of 0.124. U5A G54A gave a self-cleavage of 0.192. Work on U5A G54U yielded a self-cleavage of 0.327. Variant U5C G51U has a self-cleavage of 0.704. U5C G51C gave a self-cleavage of 0.732. In the case of C4G A26G, the self-cleavage is reported as 0.16. C4G U67A showed a self-cleavage of 0.111. For U5G C12A, the self-cleavage was 0.124. Work on C4U U52A yielded a self-cleavage of 0.295. In the case of C4G U55A, the self-cleavage is reported as 0.119. C4G U55C showed a self-cleavage of 0.122. Work on U5A C48A yielded a self-cleavage of 0.0341. In the case of U5C U58G, the self-cleavage is reported as 0.318. U5G A64C showed a self-cleavage of 0.155. In the case of U5G A64G, the self-cleavage is reported as 0.177. Variant C4G C37U has a self-cleavage of 0.222. U5C U63A showed a self-cleavage of 0.104. Work on C4G G21U yielded a self-cleavage of 0.123. C4G G21C showed a self-cleavage of 0.231. C4G U53C gave a self-cleavage of 0.264. In the case of C4G U53G, the self-cleavage is reported as 0.117. Variant C4G U53A has a self-cleavage of 0.15. Variant U5G G29U has a self-cleavage of 0.168. Variant U5G G13C has a self-cleavage of 0.276. Work on U5G G13U yielded a self-cleavage of 0.361. Variant U5C A44G has a self-cleavage of 0.147. Work on U5G G25C yielded a self-cleavage of 0.214. C4U U55C showed a self-cleavage of 0.093. With C4U C37G the self-cleavage was 0.147. C4G A45G gave a self-cleavage of 0.274. U5C A26C gave a self-cleavage of 0.497. For C4G G13U, the self-cleavage was 0.21. U5C U8C gave a self-cleavage of 0.313. With U5C U8A the self-cleavage was 0.197. In the case of U5C U7C, the self-cleavage is reported as 0.303. With C4G U70C the self-cleavage was 0.214. With U5C U62C the self-cleavage was 0.0289. Work on U5C U60A yielded a self-cleavage of 0.392. U5C A41C showed a self-cleavage of 0.734. C4U U7C showed a self-cleavage of 0.193. Work on U5A G40C yielded a self-cleavage of 0.159. C4G A28C gave a self-cleavage of 0.172. Variant U5A A36U has a self-cleavage of 0.255. Variant U5G U55C has a self-cleavage of 0.121. In the case of U5G U55A, the self-cleavage is reported as 0.139. With U5A C65A the self-cleavage was 0.22. With U5A C65G the self-cleavage was 0.276. With U5A C65U the self-cleavage was 0.222. C4G A41C showed a self-cleavage of 0.236. In the case of C4G A41U, the self-cleavage is reported as 0.558. For C4U A47G, the self-cleavage was 0.0924. C4U C12G showed a self-cleavage of 0.259. U5G G17U gave a self-cleavage of 0.177. For U5G G17A, the self-cleavage was 0.362. With C4U G34C the self-cleavage was 1.03. C4U G34U gave a self-cleavage of 1.12. In the case of C4G G57U, the self-cleavage is reported as 0.151. Variant C4G A23C has a self-cleavage of 0.233. C4G A23G showed a self-cleavage of 0.25. Variant U5G C38G has a self-cleavage of 0.133. In the case of U5G C38U, the self-cleavage is reported as 0.195. In the case of U5A A24U, the self-cleavage is reported as 0.273. For C4U G27A, the self-cleavage was 0.722. Work on C4U G68U yielded a self-cleavage of 0.109. Variant U5A U9G has a self-cleavage of 0.231. With U5A U9A the self-cleavage was 0.371. In the case of U5G G57C, the self-cleavage is reported as 0.0591. In the case of C4G G68A, the self-cleavage is reported as 0.084. U5G G69U showed a self-cleavage of 0.247. In the case of U5G G69C, the self-cleavage is reported as 0.104. U5G G69A showed a self-cleavage of 0.0952. For U5A G51C, the self-cleavage was 0.324. U5A G51U showed a self-cleavage of 0.389. C4G U62A gave a self-cleavage of 0.191. With U5A A71U the self-cleavage was 0.334. Variant U5A A71G has a self-cleavage of 0.264. For U5A U7C, the self-cleavage was 0.107. Work on U5A U7A yielded a self-cleavage of 0.105. For C4U U70G, the self-cleavage was 0.214. C4G A35U gave a self-cleavage of 0.157. Variant C4G A35C has a self-cleavage of 0.16. With C4U C16G the self-cleavage was 0.243. C4G G40U showed a self-cleavage of 0.0761. U5A A28C showed a self-cleavage of 0.297. For U5A A28U, the self-cleavage was 0.126. U5A A28G gave a self-cleavage of 0.471. Work on C4G C48G yielded a self-cleavage of 0.0514.

Reference: the RNAGym collection of RNA variant scans (doi:10.7554/elife.80360)
